Values of other authors as cited in PMC4355281.
pKd: −log10 of the molar value.

Molecular target: PKA RII (UniProt P13861)
Sequence (P13861 2-404): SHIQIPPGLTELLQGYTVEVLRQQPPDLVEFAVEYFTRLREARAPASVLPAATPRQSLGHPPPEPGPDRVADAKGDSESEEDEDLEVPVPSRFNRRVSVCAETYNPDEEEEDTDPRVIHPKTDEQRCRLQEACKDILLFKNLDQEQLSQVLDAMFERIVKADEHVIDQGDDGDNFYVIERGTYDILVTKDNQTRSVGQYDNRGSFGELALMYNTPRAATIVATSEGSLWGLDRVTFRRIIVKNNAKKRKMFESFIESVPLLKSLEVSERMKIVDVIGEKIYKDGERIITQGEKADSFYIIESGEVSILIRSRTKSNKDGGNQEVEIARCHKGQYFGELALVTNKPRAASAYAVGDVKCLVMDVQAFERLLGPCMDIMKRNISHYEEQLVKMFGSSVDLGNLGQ

mAKAPβ, sequence (Q9WVC7 245-2314): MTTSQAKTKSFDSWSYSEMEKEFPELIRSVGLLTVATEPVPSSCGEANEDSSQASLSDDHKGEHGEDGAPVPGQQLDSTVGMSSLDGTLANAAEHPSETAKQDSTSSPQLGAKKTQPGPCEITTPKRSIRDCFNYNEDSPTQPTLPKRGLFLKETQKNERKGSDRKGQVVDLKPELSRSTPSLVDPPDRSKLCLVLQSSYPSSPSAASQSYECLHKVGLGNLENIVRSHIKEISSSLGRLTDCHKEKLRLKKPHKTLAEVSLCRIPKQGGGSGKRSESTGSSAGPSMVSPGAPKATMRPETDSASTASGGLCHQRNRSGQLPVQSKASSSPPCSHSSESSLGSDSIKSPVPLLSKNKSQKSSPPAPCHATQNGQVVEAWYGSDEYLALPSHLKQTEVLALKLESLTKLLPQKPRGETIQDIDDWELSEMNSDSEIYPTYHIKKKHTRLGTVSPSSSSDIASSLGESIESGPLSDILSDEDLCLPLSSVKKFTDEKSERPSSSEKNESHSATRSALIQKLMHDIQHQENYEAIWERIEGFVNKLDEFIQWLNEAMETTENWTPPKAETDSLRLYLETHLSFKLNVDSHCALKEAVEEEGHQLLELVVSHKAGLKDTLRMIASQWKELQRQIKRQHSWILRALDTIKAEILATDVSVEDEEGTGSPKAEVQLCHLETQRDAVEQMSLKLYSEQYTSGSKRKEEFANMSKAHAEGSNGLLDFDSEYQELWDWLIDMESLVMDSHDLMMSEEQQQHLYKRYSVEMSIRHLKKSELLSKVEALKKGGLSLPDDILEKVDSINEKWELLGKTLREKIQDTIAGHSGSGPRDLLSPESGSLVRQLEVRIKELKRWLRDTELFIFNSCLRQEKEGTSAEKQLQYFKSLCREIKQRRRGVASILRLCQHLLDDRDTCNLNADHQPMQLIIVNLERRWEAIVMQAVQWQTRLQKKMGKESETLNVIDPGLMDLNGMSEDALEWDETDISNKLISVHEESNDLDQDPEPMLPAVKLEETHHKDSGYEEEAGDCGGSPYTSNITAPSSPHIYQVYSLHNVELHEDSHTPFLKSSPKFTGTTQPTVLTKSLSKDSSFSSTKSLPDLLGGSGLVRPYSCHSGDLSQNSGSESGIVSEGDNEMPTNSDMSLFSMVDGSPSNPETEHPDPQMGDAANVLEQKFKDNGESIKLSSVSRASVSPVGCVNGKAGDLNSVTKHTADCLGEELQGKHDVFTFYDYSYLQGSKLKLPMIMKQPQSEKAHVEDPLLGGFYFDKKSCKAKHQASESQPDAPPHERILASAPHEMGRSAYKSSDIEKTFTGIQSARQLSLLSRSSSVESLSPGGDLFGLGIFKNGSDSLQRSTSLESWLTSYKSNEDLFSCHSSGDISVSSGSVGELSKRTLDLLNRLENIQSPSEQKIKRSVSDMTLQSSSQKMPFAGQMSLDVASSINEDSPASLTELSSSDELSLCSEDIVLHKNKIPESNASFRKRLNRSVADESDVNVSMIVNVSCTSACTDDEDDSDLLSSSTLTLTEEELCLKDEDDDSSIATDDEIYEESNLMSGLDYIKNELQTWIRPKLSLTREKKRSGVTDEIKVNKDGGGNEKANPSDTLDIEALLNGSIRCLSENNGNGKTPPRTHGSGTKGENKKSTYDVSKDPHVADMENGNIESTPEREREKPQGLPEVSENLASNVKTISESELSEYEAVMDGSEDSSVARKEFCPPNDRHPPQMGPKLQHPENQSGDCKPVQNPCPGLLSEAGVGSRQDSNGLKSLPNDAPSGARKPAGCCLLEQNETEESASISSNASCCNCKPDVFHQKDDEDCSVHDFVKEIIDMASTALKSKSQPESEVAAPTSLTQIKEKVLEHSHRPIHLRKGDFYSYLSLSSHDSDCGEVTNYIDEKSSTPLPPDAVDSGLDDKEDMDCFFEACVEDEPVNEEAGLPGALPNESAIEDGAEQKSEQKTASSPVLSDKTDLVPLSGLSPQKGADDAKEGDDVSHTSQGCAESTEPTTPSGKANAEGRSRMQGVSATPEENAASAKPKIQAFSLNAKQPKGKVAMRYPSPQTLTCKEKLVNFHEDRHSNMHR

mAKAPβ (from UniProt Q9WVC7)
pKd: 6.92
